Test results as given in patent US20230322927A1 (Regeneron, published 2023).
Changes are numbered by the printed parent chain.

B1: mAb35193P2 (antibody, V domains shown)
VH: EVQLVESGGGLVKPGGSLRLSCTASGFSFRDAWMTWVRQVPGKGLEWVGRIRNKIDGGTTDYNTPVKDRFTISRDDSKNTLYLQMNSLKTEDTAVYYCTTDIWNYVLFYYYGLDVWGQGTTVTVSS
VL: not shown
B2: mAb13006P2 (antibody, V domains shown)
VH: QVQLQESGPGLVKPSETLSLTCTVSDDSIISYYWSWIRQPPGKGLEWIGYIYYSGRTNYNPSLKSRVTISVDTSKNQVSLKLNSVIAADTAVYYCARVSEDSYYHYGMDVWGQGTTVTVSS
VL: not shown
B3: mAb12999P2 (antibody, V domains shown)
VH: B2 VH with D26G, S31T, Y32F, K43R, R56I, N83S, I86T, Y104F
VL: not shown
B4: REGN6322 (bispecific antibody, human IgG4 S228P, kappa)
heavy 1: EVQLVESGGGLVKPGGSLRLSCTASGFSFRDAWMTWVRQVPGKGLEWVGRIRNKIDGGTTDYNTPVKDRFTISRDDSKNTLYLQMNSLKTEDTAVYYCTTDIWNYVLFYYYGLDVWGQGTTVTVSSASTKGPSVFPLAPCSRSTSESTAALGCLVKDYFPEPVTVSWNSGALTSGVHTFPAVLQSSGLYSLSSVVTVPSSSLGTKTYTCNVDHKPSNTKVDKRVESKYGPPCPPCPAPPVAGPSVFLFPPKPKDTLMISRTPEVTCVVVDVSQEDPEVQFNWYVDGVEVHNAKTKPREEQFNSTYRVVSVLTVLHQDWLNGKEYKCKVSNKGLPSSIEKTISKAKGQPREPQVYTLPPSQEEMTKNQVSLTCLVKGFYPSDIAVEWESNGQPENNYKTTPPVLDSDGSFFLYSRLTVDKSRWQEGNVFSCSVMHEALHNHYTQKSLSLSLGK
heavy 2: QVQLQESGPGLVKPSETLSLTCTVSGGSISSYYWSWIRQPPGKGLEWIGYIYYSGITHYNPSLKSRVTISVDTSKIQFSLKLSSVTAADTAVYYCARWGVRRDYYYYGMDVWGQGTTVTVSSASTKGPSVFPLAPCSRSTSESTAALGCLVKDYFPEPVTVSWNSGALTSGVHTFPAVLQSSGLYSLSSVVTVPSSSLGTKTYTCNVDHKPSNTKVDKRVESKYGPPCPPCPAPPVAGPSVFLFPPKPKDTLMISRTPEVTCVVVDVSQEDPEVQFNWYVDGVEVHNAKTKPREEQFNSTYRVVSVLTVLHQDWLNGKEYKCKVSNKGLPSSIEKTISKAKGQPREPQVYTLPPSQEEMTKNQVSLTCLVKGFYPSDIAVEWESNGQPENNYKTTPPVLDSDGSFFLYSRLTVDKSRWQEGNVFSCSVMHEALHNRFTQKSLSLSPGK
light: not shown
notes: EGFR arm from mAb35193P2, CD28 arm from mAb14226; also called bsAb6322; EGFRxCD28
B5: REGN7075 (bispecific antibody, human IgG4 S228P, kappa)
heavy 1: QVQLQESGPGLVKPSETLSLTCTVSGDSIITFYWSWIRQPPGRGLEWIGYIYYSGITNYNPSLKSRVTISVDTSKNQVSLKLSSVTAADTAVYYCARVSEDSYFHYGMDVWGQGTTVTVSSASTKGPSVFPLAPCSRSTSESTAALGCLVKDYFPEPVTVSWNSGALTSGVHTFPAVLQSSGLYSLSSVVTVPSSSLGTKTYTCNVDHKPSNTKVDKRVESKYGPPCPPCPAPPVAGPSVFLFPPKPKDTLMISRTPEVTCVVVDVSQEDPEVQFNWYVDGVEVHNAKTKPREEQFNSTYRVVSVLTVLHQDWLNGKEYKCKVSNKGLPSSIEKTISKAKGQPREPQVYTLPPSQEEMTKNQVSLTCLVKGFYPSDIAVEWESNGQPENNYKTTPPVLDSDGSFFLYSRLTVDKSRWQEGNVFSCSVMHEALHNHYTQKSLSLSLGK
heavy 2: B4 heavy 2
light: not shown
notes: EGFR arm from mAb12999P2, CD28 arm from mAb14226; also called bsAb7075; H4sH24623D
B6: REGN6321 (bispecific antibody, human IgG4 S228P, kappa)
heavy 1: EVQLVESGGGLVRPGGSLRLSCTASGFTFSTFIMFWVRQAPGKGLEYVSSISSNGGTIYYADSVKGRFTISRDNSKNTLYLQMGSLRAEDMAVYYCTRGGDFWSGYYPFDYWGQGTLVTVSSASTKGPSVFPLAPCSRSTSESTAALGCLVKDYFPEPVTVSWNSGALTSGVHTFPAVLQSSGLYSLSSVVTVPSSSLGTKTYTCNVDHKPSNTKVDKRVESKYGPPCPPCPAPPVAGPSVFLFPPKPKDTLMISRTPEVTCVVVDVSQEDPEVQFNWYVDGVEVHNAKTKPREEQFNSTYRVVSVLTVLHQDWLNGKEYKCKVSNKGLPSSIEKTISKAKGQPREPQVYTLPPSQEEMTKNQVSLTCLVKGFYPSDIAVEWESNGQPENNYKTTPPVLDSDGSFFLYSRLTVDKSRWQEGNVFSCSVMHEALHNHYTQKSLSLSLGK
heavy 2: B4 heavy 2
light: not shown
notes: also called bsAb6321; EGFRxCD28

Columns and labels:
human EGFR on cells [1] = target: T1, human EGFR on cells (human, UniProt P00533 25-1210); assay: cell-based or functional assay
[2] = target: T2, hEGFR(ECD).CPGG.MMH6 (REGN355) (human, UniProt P00533 25-647); assay: SPR (Biacore 4000) at 25 C; antibody captured on anti-human Fc, hEGFR.mmH injected
T2 construct: Soluble extracellular domain with a myc-myc-hexahistidine tag; also called hEGFR.mmH; hEGFR.mmh
Protocol: Association was monitored for 5 minutes, and the dissociation of hEGFR.mmH in HBS-EP running buffer was monitored for 10 minutes. All of the binding kinetics experiments were performed at 25° C. Kinetic association (kₐ) and dissociation (kd) rate constants were determined by fitting the real-time sensorgrams to a 1:1 binding model using Scrubber 2.0c curve fitting software.

human CD28 on cells = human CD28 on cells (human, UniProt P10747 19-220); assay: cell-based or functional assay
human EGFR on cells [3] = target: T1, human EGFR on cells; assay: flow cytometry titration on 22RV1 cells
Protocol: (§1) After incubation, the cells were washed twice with cold PBS containing 1% filtered FBS and a Fluorophore-conjugated anti-human secondary antibody was added to the cells and incubated for an additional 30 minutes. Live/dead dye was added to Human and Cynomolgus T cells incubations. Wells containing no antibody or secondary only were used as a control.
(§2) After incubation with EGFR expressing cells, cells were washed, re-suspended in 200 μL cold PBS containing 1% filtered FBS and analyzed by flow cytometry on a BD FACS Canto II.

human EGFR on cells [4] = target: T1, human EGFR on cells; assay: flow cytometry titration on CASKI cells
hCD28.mFc (REGN2012) [5] = target: T3, hCD28.mFc (REGN2012) (human, UniProt P10747 19-152, limits assumed); assay: SPR (Biacore T-200) at 25 C; hCD28.mFc captured on anti-mouse Fc, antibody injected
T3 construct: also called Human CD28-mFc; hCD28 with a C-terminal mouse Fc tag; not shown: C-terminal mouse Fc tag

human EGFR on cells [6] = target: T1, human EGFR on cells; assay: flow cytometry titration on A375 cells
Protocol: as §1, §2

human EGFR on cells [7] = target: T1, human EGFR on cells; assay: flow cytometry titration on PEO1 cells
Protocol: as §1, §2

[8] = target: T2, hEGFR(ECD).CPGG.MMH6 (REGN355); assay: SPR (Biacore) at 25 C; antibody captured on anti-hFc, hEGFR.mmH injected
[9] = target: T2, hEGFR(ECD).CPGG.MMH6 (REGN355); assay: SPR (Biacore) at 37 C; antibody captured on anti-hFc, hEGFR.mmH injected
Protocol: SPR Kinetics Method: Kinetics binding parameters were determined via surface plasmon resonance (SPR) using a T-200 instrument and CM5 sensors (GE Healthcare). Double-referenced sensorgrams were globally fit to a 1:1 binding model using Scrubber (BioLogics Software). The dissociation rate constant (kd) was determined by fitting the change in the binding response during the dissociation phase, and the association rate constant (ka) was determined by fitting analyte binding at different concentrations. The KD was calculated from the ratio of the kd and ka.
A six-point, three-fold dilution series of hEGFR.mmH starting at 30 nM was injected over this surface at a flow rate of 50 uL/min for 5 minutes. Surface was regenerated with a 10 second pulse of 20 mM H3PO4. Dissociation was measured for 10 minutes. Sensorgrams were processed and fit as described above.

hCD28.mFc (REGN2012) [10] = target: T3, hCD28.mFc (REGN2012); assay: SPR (Biacore) at 37 C; hCD28.mFc captured on anti-mFc, antibody injected
Protocol: SPR Kinetics Method: Kinetics binding parameters were determined via surface plasmon resonance (SPR) using a T-200 instrument and CM5 sensors (GE Healthcare). Double-referenced sensorgrams were globally fit to a 1:1 binding model using Scrubber (BioLogics Software). The dissociation rate constant (kd) was determined by fitting the change in the binding response during the dissociation phase, and the association rate constant (ka) was determined by fitting analyte binding at different concentrations. The KD was calculated from the ratio of the kd and ka. The dissociative half-life (t½) was calculated as In2/kd and converted to minutes.
CD28 Capture Method Specifics: An anti-mFc polyclonal Ab (GE) was coupled to a CM5 sensor surface using traditional EDC/NHS coupling chemistry. ˜30RUs of hCD28.mFc were captured on this surface. […] Dissociation was measured for 5 minutes. Surface was regenerated with a 40 second injection of 10 mM glycine, pH 1.5. Sensorgrams were processed and fit as described above.

hCD28.mFc (REGN2012) [11] = target: T3, hCD28.mFc (REGN2012); assay: SPR (Biacore) at 25 C; hCD28.mFc captured on anti-mFc, antibody injected

Binder | EC50 [M] of increase of BaF3/hEGFR proliferation in presence of 0.5 nM hTGFβ (human EGFR on cells [1]) [M] | IC50 [M] of inhibition of BaF3/hEGFR proliferation in presence of 0.5 nM hEGF (human EGFR on cells [1]) [M] | Inhibition [%] of BaF3/hEGFR proliferation in presence of 0.5 nM hEGF (human EGFR on cells [1]) [%] | IC50 [M] of inhibition of BaF3/hEGFR proliferation in presence of 0.5 nM hTGFβ (human EGFR on cells [1]) [M] | Inhibition [%] of BaF3/hEGFR proliferation in presence of 0.5 nM hTGFβ (human EGFR on cells [1]) [%] | Kd [2] [nM] | koff [2] [s⁻¹] | kon [2] [M⁻¹ s⁻¹] | t½ [2] [min] | IL-2 Release MAX (pg/mL), human CD3+ T cells + NCI-H292 cells, with 20 nM IsoC-1 (human CD28 on cells) [pg/mL] | IL-2 Release MAX (pg/mL), human CD3+ T cells + NCI-H292 cells, with 20 nM cemiplimab (human CD28 on cells) [pg/mL] | Proliferation MAX (CPM), human CD3+ T cells + NCI-H292 cells, with 20 nM IsoC-1 (human CD28 on cells) [CPM] | Proliferation MAX (CPM), human CD3+ T cells + NCI-H292 cells, with 20 nM cemiplimab (human CD28 on cells) [CPM] | EC50 (human EGFR on cells [4]) [nM] | Kd (hCD28.mFc (REGN2012) [5]) [nM] | koff (hCD28.mFc (REGN2012) [5]) [s⁻¹] | kon (hCD28.mFc (REGN2012) [5]) [M⁻¹ s⁻¹] | t½ (hCD28.mFc (REGN2012) [5]) [min] | EC50 (human EGFR on cells [6]) [nM] | EC50 (human EGFR on cells [7]) [nM] | other results
B1 | 9.14e-10 | 2.55e-09 | 29.6 | – | – | – | – | – | – | – | – | – | – | – | – | – | – | – | – | – | –
B2 | – | – | 93.2 | 6.55e-09 | 97.2 | – | – | – | – | – | – | – | – | – | – | – | – | – | – | – | –
B3 | – | 1.98e-08 | 91.8 | 7.79e-09 | 95.9 | – | – | – | – | – | – | – | – | – | – | – | – | – | – | – | –
B4 | 3.67e-09 | – | – | – | – | 9.38 | 0.00146 | 156000 | 7.9 | 8.02 | 21.8 | 1860 | 2380 | 24.4 | 10.3 | 0.00268 | 261000 | 4.3 | 4.64 | 5.77 | EC50 (human EGFR on cells [3]): 9.58 nM
B5 | – | – | -6.8 | – | 11.2 | – | – | – | – | 12.7 | 27.2 | 1880 | 3250 | 2.05 | – | – | – | – | – | 1.22 | Kd [8]: 2.8 nM; koff [8]: 0.000433 s⁻¹; kon [8]: 154000 M⁻¹ s⁻¹; t½ [8]: 26.7 min; Kd [9]: 0.933 nM; koff [9]: 0.000412 s⁻¹; kon [9]: 441000 M⁻¹ s⁻¹; Proliferation EC50 [M], human CD3+ T cells + NCI-H292 cells, with 20 nM IsoC-1 (human CD28 on cells): 3.92e-11 M; Proliferation EC50 [M], human CD3+ T cells + NCI-H292 cells, with 20 nM cemiplimab (human CD28 on cells): 2.16e-11 M; Kd (hCD28.mFc (REGN2012) [10]): 51.7 nM; koff (hCD28.mFc (REGN2012) [10]): 0.0131 s⁻¹; kon (hCD28.mFc (REGN2012) [10]): 254000 M⁻¹ s⁻¹; t½ (hCD28.mFc (REGN2012) [10]): 0.9 min; Kd (hCD28.mFc (REGN2012) [11]): 10.7 nM; koff (hCD28.mFc (REGN2012) [11]): 0.00314 s⁻¹; kon (hCD28.mFc (REGN2012) [11]): 294000 M⁻¹ s⁻¹; t½ (hCD28.mFc (REGN2012) [11]): 3.7 min
B6 | – | – | – | – | – | 0.634 | 4.63e-05 | 73000 | 249 | – | – | – | – | 16.9 | 10.8 | 0.00281 | 259000 | 4.1 | 5.42 | – | –
